Experimental data reported in article PMC5864733.

Target: CsrA (Escherichia coli EPEC O127:H6 E2348/69, UniProt B7UHB4 1-61)
Experiment: EMSA; no CesT
Details: protein: recombinant; tags: GST tag, cleaved by PreScission (pGEX-6P-1); chain copies: 2; label: none (ethidium bromide stain); single strand, heated to 80 C and slowly cooled

CsrA, sequence (B7UHB4 whole entry): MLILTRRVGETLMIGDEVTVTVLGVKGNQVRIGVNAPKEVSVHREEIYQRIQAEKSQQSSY

## CACUAAUAAUAUCAAUGGAUUGAUAUUAUUAAUG (structured_RNA) [nleA 5'UTR RNA]
  binding result: binds
